Series [1] concerns T1, Affinity-purified GST-tagged wild type (WT) hXBP1s.
T1 sequence: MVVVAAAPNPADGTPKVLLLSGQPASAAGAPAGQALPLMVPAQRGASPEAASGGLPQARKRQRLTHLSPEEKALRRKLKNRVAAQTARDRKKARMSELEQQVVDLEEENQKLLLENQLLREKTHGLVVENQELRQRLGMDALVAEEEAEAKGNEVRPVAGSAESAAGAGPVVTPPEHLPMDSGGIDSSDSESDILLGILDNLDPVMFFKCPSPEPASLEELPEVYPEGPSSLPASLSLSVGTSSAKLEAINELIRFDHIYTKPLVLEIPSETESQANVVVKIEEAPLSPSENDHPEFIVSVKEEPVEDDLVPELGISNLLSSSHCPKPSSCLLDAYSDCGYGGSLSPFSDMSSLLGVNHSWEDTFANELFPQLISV

In series [2] the test system is T2, Affinity-purified GST-tagged hXBP1s S288A mutant.
T2 sequence: T1 sequence with S288A

Substitutions are numbered along the chain they refer to.

From patent publication US11137400 come the findings set out here.

Regarding “Active recombinant human JNK2α2 (Millipore)”, the “in vitro kinase assay, phosphorylation in the presence of ^32P (autoradiography)” value was “JNK1, JNK2 or JNK3 was sufficient to directly phosphorylate hXBP1s” in series [1] and “mutation of Ser288 to A abolished JNKs-mediated phosphorylation of hXBP1s” in series [2].
